Experimental data taken from PMC6720793 (Molecules, 2019).

Molecular target: human β2 microglobulin (Homo sapiens, UniProt P61769)

Kd: 46 nM
B1: CNb1 (VHH)
chain: QVQLQESGGGSVQAGGSLRLSCAASRCWFRQAPGKEREWVARYYADSVKGRFTFSQDNAKNTVYLQMDSLEPEDTATYYCCWGQGTQVTVSS
